From patent US20210163594A1 (INVENRA, published 2021)

T1: CD3
T1 chain: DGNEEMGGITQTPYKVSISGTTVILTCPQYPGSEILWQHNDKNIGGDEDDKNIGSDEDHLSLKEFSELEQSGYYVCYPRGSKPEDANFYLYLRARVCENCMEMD


Experiments:
CD3 = molecular target: T1, CD3; test: BLI (Octet), two-fold serial dilution (200-12.5 nM) of the monovalent B-Body
CTLA4 = CTLA4 (UniProt P16410 36-161, limits assumed); test: BLI (Octet), antigen immobilized, B-Body as analyte
From the text: In each instance, the antigen is immobilized and the B-Body is the analyte.

Chain of CTLA4 (P16410 36-161 limits assumed): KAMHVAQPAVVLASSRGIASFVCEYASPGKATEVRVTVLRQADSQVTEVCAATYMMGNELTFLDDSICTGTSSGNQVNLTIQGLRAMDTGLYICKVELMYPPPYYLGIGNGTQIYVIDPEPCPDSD

| Binder | Kd (CD3) [µM] | koff (CD3) [s⁻¹] | kon (CD3) [M⁻¹ s⁻¹] | binding result (CTLA4) |
| --- | --- | --- | --- | --- |
| non-mutagenized SP34-89 monovalent B-Body (bispecific antibody, V domains shown, VL and VH were cloned into one arm of a 1×1 BC1 B-Body; Constant parts as in the BC1 scaffold; also called SP34-89 VL-WT/SP34-89 VH-WT) VH: EVQLVESGGGLVQPGGSLRLSCAASGFTFNTYAMNWVRQAPGKGLEWVARIRSKYNNYATYYADSVKGRFSISRDDSKNTAYLQMNSLRAEDTAVYYCVRHGNFGNSYVSWFAYWGQGTLVTV VL: QAVVTQEPSLTVSPGGTVTLTCRSSTGAVTTSNYANWVQQKPGQAPRGLIGGTNKRAPWTPARFSGSLLGGKAALTITGAQAEDEADYYCALWYSNLWVFGGGTKLTVL | 0.023 | 0.0071 | 300000 | – |
| BC1 (bispecific antibody, also called bivalent bispecific B-Body BC1; bivalent 1×1 construct BC1) chain 1: not shown chain 2: EVQLVESGGGLVQPGGSLRLSCAASGFTFSDYDIHWVRQAPGKGLEWVGDITPYDGTTNYADSVKGRFTISADTSKNTAYLQMNSLRAEDTAVYYCARLVGEIATGFDYWGQGTLVTVSSASPREPQVYTDPPSRDELTKNQVSLTCLVKGFYPSDIAVEWESNGQPENNYKTTPPVLDSDGSFFLYSKLTVDKSRWQQGNVFSCSVMHEALHNHYTQKSLSLSGEC chain 3: not shown chain 4: QVQLVESGGGVVQPGRSLRLDCKASGITFSNSGMHWVRQAPGKGLEWVAVIWYDGSKRYYADSVKGRFTISRDNSKNTLFLQMNSLRAEDTAVYYCATNDDYWGQGTLVTVSSASTKGPSVFPLAPSSKSTSGGTAALGCLVKDYFPEPVTVSWNSGALTSGVHTFPAVLQSSGLYSLSSVVTVPSSSLGTQTYICNVNHKPSNTKVDKKVEPPKSC | – | – | – | no binding |
